Patent US20220267402A1 (SERPENTIDE, published 2022)
One block for each molecule: values may come before it.

Assays:
[1] = target: human GLP1 receptor (on HEK293-CNG-HuGLP1R stable cells) (human) (UniProt P43220); test: cell-based or functional assay
[2] = target: human GLP1 receptor (on HEK293-CNG-HuGLP1R stable cells) (human, UniProt P43220 24-463); test: cell-based or functional assay

EC50, cAMP bioassay on HEK293-CNG-HuGLP1R cells [1]: 22 nM
Molecule: Eli Lilly Trulicity (Lot#02448599) (Fc fusion)

EC50, cAMP bioassay on HEK293-CNG-HuGLP1R cells (after Factor Xa predigestion) [2]: 17.6 nM
B1: p9: hGLP1R ECD (1-116)-3xG4S-RGER-Trulicity (lot U2243DL140-14/P9EA001) (Fc fusion)
chain: RPQGATVSLWETVQKWREYRRQCQRSLTEDPPPATDLFCNRTFDEYACWPDGEPGSFVNVSCPWYLPWASSVPQGHVYRFCTAEGLWLQKDNSSLPWRDLSECEESKGGGGSGGGGSGGGGSRGERHGEGTFTSDVSSYLEEQAAKEFIAWLVKGGGGGGGSGGGGSGGGGSAESKYGPPCPPCPAPEAAGGPSVFLFPPKPKDTLMISRTPEVTCVVVDVSQEDPEVQFNWYVDGVEVHNAKTKPREEQFNSTYRVVSVLTVLHQDWLNGKEYKCKVSNKGLPSSIEKTISKAKGQPREPQVYTLPPSQEMTKNQVSLTCLVKGFYPSDIAVEWESNGQPENNYKTTPPVLDSDGSFFLYSRLTVDKSRWQEGNVFSCSVMHEALHNHYTQKSLSLSLG
